Earlier results as cited in publication PMC9464413.
pKd: −log10 of the molar value.

Biological target: p97 (Homo sapiens) (UniProt P55072)
Experiment: SPR

UniProt P55072, sequence (P55072 2-806): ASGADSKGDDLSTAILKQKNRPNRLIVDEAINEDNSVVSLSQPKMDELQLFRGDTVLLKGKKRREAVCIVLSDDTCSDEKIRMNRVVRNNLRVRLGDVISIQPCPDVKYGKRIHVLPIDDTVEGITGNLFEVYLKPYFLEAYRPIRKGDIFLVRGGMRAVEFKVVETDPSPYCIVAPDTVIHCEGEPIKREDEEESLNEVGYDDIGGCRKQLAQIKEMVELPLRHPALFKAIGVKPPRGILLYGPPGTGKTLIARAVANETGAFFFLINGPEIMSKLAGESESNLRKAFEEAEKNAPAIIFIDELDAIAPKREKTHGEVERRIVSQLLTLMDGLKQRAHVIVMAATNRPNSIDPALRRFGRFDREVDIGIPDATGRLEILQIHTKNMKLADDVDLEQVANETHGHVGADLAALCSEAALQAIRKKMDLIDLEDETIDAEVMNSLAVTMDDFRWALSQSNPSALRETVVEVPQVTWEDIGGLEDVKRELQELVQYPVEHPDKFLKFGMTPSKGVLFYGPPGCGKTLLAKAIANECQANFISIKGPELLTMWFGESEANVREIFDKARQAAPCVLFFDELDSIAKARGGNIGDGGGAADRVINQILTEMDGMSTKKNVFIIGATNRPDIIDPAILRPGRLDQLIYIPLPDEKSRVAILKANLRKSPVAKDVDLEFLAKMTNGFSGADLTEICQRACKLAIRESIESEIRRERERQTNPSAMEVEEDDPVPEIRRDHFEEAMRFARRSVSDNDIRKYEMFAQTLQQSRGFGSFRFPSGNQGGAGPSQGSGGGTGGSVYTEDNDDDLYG

Row | pKd | Substance
1 | 7.70 | p47 (from UniProt Q9UNZ2)
2 | 7.54 | p37 (from UniProt Q14CS0)
